Results: US20250340655A1, “EPHA2-TARGETING ANTIBODIES AND THEIR APPLICATIONS IN CANCER TREATMENT” (TAIPEI MEDICAL UNIVERSITY, priority 2022, published 2025)
Square brackets hold non-standard residues; d marks the D form. Peptide text beside a SMILES is read from it. * marks the point of attachment. Dolaproine = CO[C@@H]([C@@H]1CCCN1)[C@@H](C)C(=O)O; Dil = CC[C@H](C)[C@H](NC)[C@@H](CC(=O)O)OC; X1 = C[C@@H](N*)[C@@H](O)c1ccccc1; NMeV = CN[C@H](C(=O)O)C(C)C

How the values were obtained:
[1] = Int J Mol Sci. 21 (9): 3286 (2020); cited from earlier work
hTERT HPNE = test: Growth inhibitory response to serially diluted MMAE, normal pancreatic cell line; assay type: cell-based; details: serially diluted MMAE (FIG. 10)
EphA2 [2] = target: T1, EphA2 (Homo sapiens, UniProt P29317); test: Flow cytometry binding specificity on 293T cells overexpressing EphA molecules: EphA2; design: expressed in transfected cells; host or cells: 293T; details: flow cytometry (FIG. 6A)
Experimental: (§1) To detect the binding specificity of scFv, 293T cells were transformed with EphA1-A8 plasmids individually for overexpression of different EphA molecules. The cell line was freshly prepared and washed with FACS buffer (2% FBS in PBS). The cells were seeded at 1×10^5 cells/well into a 96-well Ubottom plate and incubated with scFv for 1 h at 4° C. After the plate was washed with FACS buffer, the anti-hemagglutinin (HA) antibody was added for scFv binding detection (scFv was fused with a HA tag) and subsequently developed using an FITC-conjugated secondary antibody. Finally, the cell binding signal was analyzed using a FACS can flow cytometer.

HuCCT1, ssp-25, RBE, TFK = test: MTS growth inhibition, cholagiocarcinoma cells; assay type: cell-based; design: dose or concentration left out as unconfirmed; details: four cell lines HuCCT1, ssp-25, RBE, Day 5
Experimental: The growth inhibitory effect of hSD5 scFv on the four strains of cholagiocarcinoma cells was tested under different concentrations. At indicated concentrations, hSD5 scFv interacted with the cancer cells for 5 days, and the effects on the growth of cancer cells were observed by MTS assay. (FIG. 17C)

[3] = tested on: BxPc-3 and Mia PaCa-2 cells; test: Molecule signaling by Western blotting; assay type: cell-based, human
Experimental: […] The cells were collected and lysed using lysis buffer [50 mM Tris-HCl (pH 7.5), 50 mM NaCl, 5 mM ethylenediaminetetraacetic acid, and 1% Triton X-100], and a mixture of proteinase inhibitors (Roche Applied Science) was added. The protein concentration of the cell lysate was measured through the Coomassie Plus (Bradford) Protein Assay (Thermo Fisher Scientific). Samples were run on reducing SDS-PAGE for Western blotting analysis and were detected using antibodies against p-EphA2, EphA2, p-AKT, AKT, p-ERK, ERK, p-FAK, FAK, pSTAT3, STAT3 (Cell Signaling Technology), and β-actin (GeneTex).

[4] = tested on: other Eph family proteins (EphA1-A8); test: Flow cytometry binding specificity on 293T cells overexpressing EphA molecules: other family proteins; details: cells overexpressing EphA1-A8 (FIG. 6A)
Experimental: as §1

AsPc-1 = test: MTS cell proliferation assay, AsPc-1; assay type: cell-based, human; design: dose or concentration left out as unconfirmed; details: AsPc-1, MTS, Day 5, scFv
Experimental: (§2) PAAD cell proliferation was measured using a 3-(4,5-dimethylthiazol-2-yl)-5-(3-carboxymethoxyphenyl)-2-(4-sulfophenyl)-2H-tetrazolium (MTS) Cell Proliferation Assay Kit (Promega). The cells were seeded in a 96-well culture plate at a density of 5000 cells/well for attachment. Then, scFv at various concentrations was added to the cell culture and incubated for 5 days. Finally, MTS and phenazine methosulfate solutions were added and incubated for 90 min for development. After the SDS reagent was added to stop the reaction, the absorbance of each well was measured by determining the OD at 490 nm.

Mia PaCa-2 [5] = test: MTS cell proliferation assay, Mia PaCa-2; assay type: cell-based, human; design: dose or concentration left out as unconfirmed; details: Mia PaCa-2, MTS, Day 5, scFv
Experimental: as §2

BxPc-3 [6] = test: Scratch wound healing assay, BxPc-3; assay type: cell-based, human; details: BxPc-3, wound healing assay (FIG. 5D)
Experimental: (§3) PAAD cells were seeded at 5×10^4 cells/well in a 24-well Transwell cell migration plate (Corning) and incubated with scFv for 2 days. In the assay, recombinant ephrin-A1 (Sino Biological) was added as a positive control. After scFv treatment, the cells were fixed with frozen 100% methanol for 10 min and stained with 0.01% crystal violet for 1 h at room temperature. After the pate was washed with ddH2O, the upper-layer cells were removed using cotton swabs. Cell staining was imaged using a microscope and analyzed using ImageJ. For the scratch wound healing assay, PAAD cells were seeded in a 6-well culture plate. The seeded cells in the well were scratched with a pipette tip to simulate a wound. After treatment with scFv and incubation for 36 or 72 h, the cells were imaged using a microscope. The wound areas were analyzed using ImageJ.
(§4) For the scratch wound healing assay, PAAD cells were seeded in a 6-well culture plate. The seeded cells in the well were scratched with a pipette tip to simulate a wound. After treatment with scFv and incubation for 36 or 72 h, the cells were imaged using a microscope. The wound areas were analyzed using ImageJ.

[7] = target: T2, natural EphA2 molecule in the lysate of 4 pancreatic cancer cell lines (Homo sapiens, UniProt P29317); test: Immunoprecipitation (pull down) from PAAD cell lysates; assay type: binding; details: lysates of four PAAD cell lines (FIG. 3F)
T2 construct: with endogenous EphA2 molecule expression; endogenous in cells; host or cells: AsPc-1, BxPc-3, Panc-1, Mia PaCa-2
Experimental: For the immunoprecipitation assay, 300 μg of each PAAD cell lysate was incubated with 50 μg of antiEphA2 scFv (scFv was fused with a His tag) at 4° C. overnight. On the next day, 30 μL of Ni^2+-charged sepharose was added to the mixture and incubated for 1 h at 4° C. After three rounds of washing with NiNTA wash buffer (50 mM NaH2PO4, 300 mM NaCl, and 10 mM imidazole, pH 8.0), the scFv-bound sepharose beads were resuspended in 50 μL of PBS buffer. Subsequently, the sepharose solution was denatured at 95° C. for 10 min and analyzed using SDS-PAGE. After the proteins were transferred to a polyvinylidene fluoride membrane, the membrane was detected using the anti-EphA2 antibody (R&D Systems) and anti-His (Proteintech Group) antibody at 4° C. overnight. On the next day, after washing with PBST, the membrane was incubated with HRP-conjugated secondary antibody (Jackson ImmunoResearch Laboratories). Finally, the chemiluminescence substrate was added for luminal signal detection.

BxPc-3 and Mia PaCa-2 [8] = test: Scratch wound healing assay (FIG. 5C); assay type: cell-based, human; details: after 36 and 72 h of treatment with scFv
Experimental: as §3, §4

Panc-1 [9] = test: Transwell migration assay, Panc-1; assay type: cell-based, human; details: Panc-1, transwell migration assay (FIG. 5B)
Experimental: as §3

BxPc-3 [10] = test: Transwell migration assay, BxPc-3; assay type: cell-based, human; details: BxPc-3, transwell migration assay (FIG. 5B)
Experimental: as §3

Mia PaCa-2 [11] = test: Scratch wound healing assay, Mia PaCa-2; assay type: cell-based, human; details: Mia PaCa-2, wound healing assay (FIG. 5D)
Experimental: as §3, §4

Panc-1 [12] = test: MTS cell proliferation assay, Panc-1; assay type: cell-based, human; design: dose or concentration left out as unconfirmed; details: Panc-1, MTS, Day 5, scFv
Experimental: as §2

[13] = target: T3, endogenous EphA2 molecules on 4 pancreatic cancer cell lines (AsPc-1, BxPc-3, Panc-1, Mia PaCa-2) (Homo sapiens, UniProt P29317); test: Flow cytometry binding on pancreatic cancer cells; details: 4 PAAD cell lines (FIG. 3E)
T3 construct: with endogenous EphA2 molecule expression; endogenous in cells; host or cells: AsPc-1, BxPc-3, Panc-1, Mia PaCa-2
Experimental: Four PAAD cells AsPc-1, BxPc-3, Panc-1, and Mia PaCa-2 with endogenous EphA2 molecule expression, were analyzed through flow cytometry to determine the binding reactivity of indicated scFvs. Freshly prepared cancer cells were harvested and washed twice with PBS. Then, individual scFv was added and incubated at room temperature for 1 h. Bound scFv was visualized using goat anti-chicken light chain antibodies and donkey anti-goat antibodies conjugated with fluorescein isothiocyanate (FITC; Jackson ImmunoResearch Laboratories). An irrelevant scFv was used as the negative control, and commercially available goat anti-EphA2 antibodies were used as the positive control (R&D Systems) in the assay. The results were analyzed using a FACS can flow cytometer (BD Biosciences, Systems and Reagents).

BxPc-3 [14] = test: MTS cell proliferation assay, BxPc-3; assay type: cell-based, human; design: dose or concentration left out as unconfirmed; details: BxPc-3, MTS, Day 5, scFv
Experimental: as §2

EphA2 [15] = target: T1, EphA2; test: Western blotting under reducing (SDS-PAGE) and non-reducing (Native-PAGE) conditions; assay type: binding; details: Native-PAGE vs SDS-PAGE (FIG. 3D)
Experimental: The recombinant EphA2 protein was transferred onto nitrocellulose membranes (GE Healthcare Life Sciences) after electrophoresis using sodium dodecyl sulfate-polyacrylamide gel (SDS-PAGE) or nativepolyacrylamide gel (Native-PAGE), and the membranes were incubated with using purified scFv antibodies to determine binding reactivity. The membranes were blocked with 5% skim milk and then incubated with scFv at room temperature for 1 h. After washing with PBST, the membranes were detected and developed using HRP-conjugated goat anti-chicken light chain antibodies. Finally, the 3,3′-diaminobenzidine substrate was added for color development until the desired color intensity was reached.

BxPc-3 and Mia PaCa-2 [16] = test: Transwell migration assay (FIG. 5A); assay type: cell-based, human; design: dose or concentration left out as unconfirmed; details: scFv for 2 days
Experimental: as §3

T1 sequence (P29317 24-976): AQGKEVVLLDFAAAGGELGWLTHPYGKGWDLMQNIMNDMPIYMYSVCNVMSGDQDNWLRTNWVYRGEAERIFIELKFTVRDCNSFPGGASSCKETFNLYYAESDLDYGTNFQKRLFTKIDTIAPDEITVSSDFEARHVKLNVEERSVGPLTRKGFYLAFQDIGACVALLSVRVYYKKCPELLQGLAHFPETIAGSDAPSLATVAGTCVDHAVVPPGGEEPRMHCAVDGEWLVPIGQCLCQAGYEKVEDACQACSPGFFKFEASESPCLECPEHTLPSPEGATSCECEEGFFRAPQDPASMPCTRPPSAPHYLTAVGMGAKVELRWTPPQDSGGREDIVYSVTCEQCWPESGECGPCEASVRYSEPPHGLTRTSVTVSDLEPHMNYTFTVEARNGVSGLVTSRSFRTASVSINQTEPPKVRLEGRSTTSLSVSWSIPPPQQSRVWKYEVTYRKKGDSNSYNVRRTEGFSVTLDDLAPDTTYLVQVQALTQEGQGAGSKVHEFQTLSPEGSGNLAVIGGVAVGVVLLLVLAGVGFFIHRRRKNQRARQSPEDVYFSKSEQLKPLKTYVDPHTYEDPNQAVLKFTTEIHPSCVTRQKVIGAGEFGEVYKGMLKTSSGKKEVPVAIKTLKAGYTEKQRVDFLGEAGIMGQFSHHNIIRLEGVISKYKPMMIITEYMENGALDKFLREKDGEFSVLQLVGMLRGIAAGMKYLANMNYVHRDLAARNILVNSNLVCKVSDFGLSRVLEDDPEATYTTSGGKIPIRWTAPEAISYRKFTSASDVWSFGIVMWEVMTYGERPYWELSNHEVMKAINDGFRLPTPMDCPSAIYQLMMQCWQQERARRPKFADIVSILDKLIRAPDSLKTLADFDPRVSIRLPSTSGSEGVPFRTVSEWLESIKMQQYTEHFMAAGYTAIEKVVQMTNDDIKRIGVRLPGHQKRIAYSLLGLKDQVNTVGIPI
T2 sequence (P29317 24-976): as above
T3 sequence (P29317 24-976): as above

Question: What does the source list for CC[C@H](C)[C@@H]([C@@H](CC(=O)N1CCC[C@H]1[C@H](OC)[C@@H](C)C(=O)N[C@H](C)[C@@H](O)c1ccccc1)OC)N(C)C(=O)[C@@H](NC(=O)[C@@H](NC)C(C)C)C(C)C [MMAE, Monomethyl auristatin E] (H-[NMeV]V[Dil][Dolaproine]-X1)?
Answer: potency relative to doxorubicin [1]: 100-1000 times; growth inhibition of normal pancreatic cell line (hTERT HPNE): only mild effect

B1: scFv hSD5: humanized anti-EphA2 scFv, SEQ ID NO: 12 (light chain SEQ ID NO: 8, heavy chain SEQ ID NO: 10) (protein)
scFv: LTQPPSVSVSPGQTVRITCSGSSGSYGWYQQKSPGQAPVTLIYDNDKRPSGIPERFSGSSSGSTSTLTISGVQAEDEADYYCGSADSSTYVGMFGGGTKLTVLGQSSRSSQVQLVESGGGLVQPGGSLRLSCAASGFTFSDYGMGWVRQAPGKGLEWVAGISAAGSFTPYGAAVKGRFTISRDNSKNTVYLQMNSLRAEDTAVYYCARIPSGYRAGEIYTWGQGTLVTVSS
Question: For B1, which “binding to cells overexpressing EphA2” value (EphA2 [2]) is on record?
Answer: The value was “specifically binds to EphA2 molecules”.

Question: What about the growth inhibition (HuCCT1, ssp-25, RBE, TFK) of the same molecule?
Answer: The growth inhibition was 40%-70%.

Question: What about the “LAMP1 and LAMP2 levels” value ([3]; 6 h after administration of scFv (FIG. 6C)) of the same molecule?
Answer: Its value is “upregulated levels”.

Question: What about the EphA2 degradation ([3]; 6 h after administration of scFv, dose-dependent (FIG. 6C)) of the same molecule?
Answer: The EphA2 degradation was “degraded EphA2 molecules”.

Question: What about the EphA2 level ([3]; 24 hours treatment (FIG. 6D)) of the same molecule?
Answer: The EphA2 level was “almost completely degraded”.

Question: What about the “amount of pEphA2” value ([3]; 24 hours treatment (FIG. 6D)) of the same molecule?
Answer: The value was “decreased”.

Question: What about the “pSTAT3 and pFAK signals” value ([3]; 24 hours treatment (FIG. 6D)) of the same molecule?
Answer: The value was “dose-dependent decrease”.

Question: What about the “cross-binding to other Eph family proteins” value [4] of the same molecule?
Answer: The value was “does not exhibit cross-binding reactions”.

B2: scFv SD5: chicken derived anti-EphA2 scFv, SEQ ID NO: 11 (light chain SEQ ID NO: 7, heavy chain SEQ ID NO: 9) (protein)
scFv: LTQPSSVSANLGETVKIPCSGSSGSYGWYQQKSPGSAPVTLIYDNDKRPSDIPSRFFGSTSGSTSTLTITGVQAEDEAVYFCGSADSSTYVGMFGAGTTLTVLGQSSRSSTVTLDESGGGLQTPGGGLSLVCKASGFTFSDYGMGWVRQAPGKGLEFVAGISAAGSFTPYGAAVKGRATISRDNGQSTVRLQLNNLRSEDTGIYYCARIPSGYRAGEIYTWGQGTEVIVSS
Question: For B2, which growth inhibition (AsPc-1) is on record?
Answer: The growth inhibition was “approximately 80%”.

Question: What about the growth inhibition (Mia PaCa-2 [5]) of the same molecule?
Answer: The growth inhibition was “approximately 80%”.

Question: What about the migration inhibitory effect (BxPc-3 [6]) of the same molecule?
Answer: The migration inhibitory effect was 67%.

Question: And the “pull down of EphA2 from cell lysates” value [7]?
Answer: Its value is “captured free EphA2 molecules”.

Question: What about the “migration of cancer cells in wound healing assay” value (BxPc-3 and Mia PaCa-2 [8]) of the same molecule?
Answer: Its value is “inhibited the migration of cancer cells”.

Question: And the migration inhibition (Panc-1 [9])?
Answer: The migration inhibition was 65%.

Question: And the migration inhibition (BxPc-3 [10])?
Answer: The migration inhibition was 91%.

Question: What about the migration inhibitory effect (Mia PaCa-2 [11]) of the same molecule?
Answer: The migration inhibitory effect was 65%.

Question: What about the growth inhibition (Panc-1 [12]) of the same molecule?
Answer: Its growth inhibition is “approximately 80%”.

Question: And the “binding response to EphA2 molecules on cancer cells” value [13]?
Answer: Its value is “significant binding response”.

Question: And the growth inhibition (BxPc-3 [14])?
Answer: Its growth inhibition is 58.5%.

Question: And the “recognition of EphA2 protein in native and denatured form” value (EphA2 [15])?
Answer: The value was “can recognize EphA2 in the native form, but not in the denatured form”.

Question: What about the “number of migrated cancer cells” value (BxPc-3 and Mia PaCa-2 [16]) of the same molecule?
Answer: The value was “reduced effectively”.
